In patent US20240189443A1, “PD-L1 AND TLR7 DOUBLE-TARGETING NANOBODY COUPLING DRUG AND USE THEREOF IN ANTI-TUMOR” (SHANGHAI INSTITUTE OF MATERIA MEDICA, CHINESE ACADEMY OF …, priority 2021, published 2024):

Columns and labels:
[1] = biological target: T1, HEK293T/mPD-L1 (Mus musculus, UniProt Q9EP73); assay: Flow cytometry PD-L1 binding activity assay of the nanobody coupling drug; conditions: 17 concentrations 100-0.0008 μg/mL
T1 construct: expressed in transfected cells; host or cells: HEK293T

[2] = biological target: T2, PD-1/PD-L1 (HEK293T/mPD-L1) (Mus musculus, UniProt Q9EP73); assay: Flow cytometry PD-1/PD-L1 blocking activity assay of the nanobody coupling drug; format: binding; conditions: mouse PD-1-biotin 20 μg/mL
T2 construct: expressed in transfected cells; host or cells: HEK293T

[3] = system: non-induced CT26; assay: Uninduced (low expression) PD-L1 CT26 subcutaneous tumor-bearing model; format: in vivo, BALB/c mouse; conditions: 10 mg/kg intraperitoneal, 4 doses
From the text: (§1) In FIG. 8A, it has been shown that the non-induced CT26 cell surface PD-L1 expression is approximately 17.3%, and the expression level of PD-L1 is increased to 98.1% only after IFN-γ induction. Therefore, we researched and compared the effects of the coupling compound in the non-induced and induced CT26 mouse tumor model, respectively.
(§2) In the two models, CT26 tumor cells were subcutaneously inoculated into female BALB/c mice before and after induction respectively to construct tumor-bearing mouse models, and the inoculation amount was 1×10^6 cells/one; the mice are randomly divided into two groupswith 6 mice of each group, that is, a blank control group mFc (the concentration is 10 mg/kg), and a coupling compound Nb16-SZU-101 group (the concentration was 10 mg/kg); the administration dosage was 200 μl, and the administration modes were both intraperitoneal administration; administration was performed on Day 2, Day 5, Day 8 and Day 11 respectively, and administration was carried out for 4 times; the size of the tumor was measured for 2-3 times every week, and a tumor growth curve was drawn; and anatomical weighing and photographing were performed on the mouse at Day 12.

[4] = system: induced CT26; assay: Induced (high expression) PD-L1 CT26 subcutaneous tumor-bearing model; format: in vivo, BALB/c mouse; conditions: 10 mg/kg intraperitoneal, 4 doses
From the text: as §1, §2

[5] = system: uninduced CT26 tumor cell; assay: Early CT26 subcutaneous tumor-bearing model (tumor volume<50 mm^3); format: in vivo, BALB/c mouse
Method: The uninduced CT26 tumor cell subcutaneous was inoculated into a female BALB/C mouse to construct a tumor-bearing mouse model in the two models, and the inoculation amount was 1×10^6 cells/; the mice were divided into two groups, and each group was 8 mice, that is, a blank control group mFc (the concentration was 10 mg/kg), and a coupling compound Nb16-SZU-101 group (the concentration was 10 mg/kg); and the administration dosage was 200 μL, and the administration manner was an abdominal administration. In the early model (the tumor volume was<50 mm^3), the drug was administered in Day 4, Day 7, Day 10, Day 13, Day 16, and the drug was administered for 5 times; in the late model (the tumor volume was greater than 200 mm^3), the drug was administered in Day 9, Day 12, Day 15, Day 17, and the drug was administered for 4 times. The tumor size was measured 2-3 times a week, and a tumor growth curve was drawn.

[6] = system: CT26 tumor cells; assay: Re-tumor model with CT26 cells in mice with regressed tumor; format: in vivo, mouse; conditions: re-tumor 1 week after tumor faded
From the text: Moreover, in the early model, the coupling compound therapy will cause tumor regression of up to 62.5% tumor-bearing mice (FIG. 10B); in the late model, the compound drug will cause 12.5% tumor-bearing mice to have tumor regression (FIG. 10D).

T1 sequence (Q9EP73 19-290): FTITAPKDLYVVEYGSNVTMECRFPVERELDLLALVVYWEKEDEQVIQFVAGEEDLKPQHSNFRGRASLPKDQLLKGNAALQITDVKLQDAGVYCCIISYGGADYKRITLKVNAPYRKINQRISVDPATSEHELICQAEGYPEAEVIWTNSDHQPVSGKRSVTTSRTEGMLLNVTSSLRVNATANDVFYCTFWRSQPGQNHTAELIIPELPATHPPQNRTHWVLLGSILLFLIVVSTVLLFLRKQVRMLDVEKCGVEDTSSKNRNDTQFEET
T2 sequence (Q9EP73 19-290): as above

B1: Nb16-SZU-101: PD-L1 and TLR7 dual-targeting nanobody coupling drug, Nb16 coupled with SZU-101-NHS active ester (conjugate)
chain: QVQLQESGGGSVQAGGSLRLSCAASGYTDRNYWMGWFRQAPGKEREGVAALYTRTGSTYYADSVKGRFTISHDNAKNTLYLQMNSLKPEDTAVYYCAADSNAYGLAPLHHYWGQGTQVTVSS
modifications: left off: a dimerising Fc or GST
- PD-L1 binding activity of conjugate compared with Nb16 [1]: does not change the binding activity
- PD-1/PD-L1 blocking activity of conjugate compared with Nb16 [2]: does not change the blocking activity
- Tumor growth inhibition rate [3]: 78.9%
- Tumor growth inhibition rate [4]: 83.6%
- Lifetime (survival) [5]: significantly prolong the lifetime
- Tumor growth inhibition rate ([5]; 10 mg/kg abdominal administration, 5 doses): 80.3%
- Tumor-bearing mice with tumor regression ([5]; 10 mg/kg, 5 doses): up to 62.5%
- Tumor growth after re-tumor of CT26 cells [6]: does not grow the tumor within 40 days
